No end group written: not given here.
B6: rat melanocortin-3 receptor (receptor)
chain: MNSSCCPSSSYPTLPNLSQHPAAPSASNRSGSGFCEQVFIKPEVFLALGIVSLMENILVILAVVRNGNLHSPMYFFLLSLLQADLLVSLSNSLETIMIVVINSDSLTLEDQFIQHMDNIFDSMICISLVASICNLLAIAVDRYVTIFYALRYHSIMTVRKALSLIVAIWVCCGICGVMFIVYSESKMVIVCLITMFFAMVLLMGTLYIHMFLFARLHVQRIAALPPADGLAPQQHSCMKGAVTITILLGVFIFCWAPFFLHLVLIITCPTNPYCICYTAHFNTYLVLIMCNSVIDPLIYAFRSLELRNTFKEILCGCNGMNVG
notes: Stably expressed in human 293 cells from pcDNA/neo I; also called rat MC-3 receptor; rat MC3-R

What was measured:
[1] = target: B6; experiment: cell-based or functional assay
[2] = target: mouse MC-5 melanocortin receptor (mouse) (UniProt P41149); experiment: cell-based or functional assay
[3] = target: human MC-3 receptor (human) (UniProt P41968); experiment: cell-based or functional assay
[4] = target: T1, mouse αMSH (MC-1) receptor (mouse) (UniProt Q01727); experiment: cell-based or functional assay
T1 sequence: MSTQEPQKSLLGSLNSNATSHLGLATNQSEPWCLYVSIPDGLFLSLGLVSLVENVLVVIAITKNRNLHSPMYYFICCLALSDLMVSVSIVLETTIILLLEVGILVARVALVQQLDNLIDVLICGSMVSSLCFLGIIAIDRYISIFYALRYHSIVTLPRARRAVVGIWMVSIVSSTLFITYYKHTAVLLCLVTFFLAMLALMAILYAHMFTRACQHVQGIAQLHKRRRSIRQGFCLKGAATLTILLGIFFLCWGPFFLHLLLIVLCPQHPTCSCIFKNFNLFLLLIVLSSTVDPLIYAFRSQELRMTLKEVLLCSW

[5] = target: T2, human melanocortin 4 receptor (human, UniProt P32245 1-332); experiment: cell-based or functional assay
T2 chain: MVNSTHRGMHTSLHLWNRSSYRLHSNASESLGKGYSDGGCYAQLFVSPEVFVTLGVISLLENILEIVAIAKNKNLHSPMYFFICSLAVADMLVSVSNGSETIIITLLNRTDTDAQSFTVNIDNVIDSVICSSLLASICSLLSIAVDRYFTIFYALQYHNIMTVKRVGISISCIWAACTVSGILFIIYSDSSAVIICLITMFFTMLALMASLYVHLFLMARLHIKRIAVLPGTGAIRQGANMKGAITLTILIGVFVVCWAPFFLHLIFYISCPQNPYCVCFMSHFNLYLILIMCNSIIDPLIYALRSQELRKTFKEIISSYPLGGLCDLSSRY

[6] = target: B6; experiment: competition with 125I-NDP-MSH on suspended 293 cells expressing rat MC-3 receptor
murine agouti peptide = target: T3, murine agouti peptide (mouse, UniProt Q03288 23-131, limits assumed); experiment: competition with 125I-[Nle^4, D-Phe^7]α-MSH on 293 cells expressing rat MC-3 receptor; results not shown
T3 construct: Preparation was not homogeneous; also called endogenous mouse agouti peptide
T3 sequence (looked up): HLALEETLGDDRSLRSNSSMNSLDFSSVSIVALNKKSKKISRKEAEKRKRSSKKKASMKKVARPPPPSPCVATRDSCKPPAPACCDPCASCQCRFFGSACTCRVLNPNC

mouse MC-5 melanocortin receptor (mouse), sequence (P41149 whole entry): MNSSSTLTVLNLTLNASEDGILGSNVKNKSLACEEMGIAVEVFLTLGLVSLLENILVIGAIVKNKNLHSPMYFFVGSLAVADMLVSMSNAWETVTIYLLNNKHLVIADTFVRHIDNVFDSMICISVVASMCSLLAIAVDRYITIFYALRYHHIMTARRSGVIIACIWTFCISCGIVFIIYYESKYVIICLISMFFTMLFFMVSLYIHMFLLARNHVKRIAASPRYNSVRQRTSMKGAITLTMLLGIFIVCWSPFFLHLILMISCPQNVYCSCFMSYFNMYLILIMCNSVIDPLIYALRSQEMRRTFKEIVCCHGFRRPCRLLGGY
human MC-3 receptor (human), sequence (P41968 whole entry): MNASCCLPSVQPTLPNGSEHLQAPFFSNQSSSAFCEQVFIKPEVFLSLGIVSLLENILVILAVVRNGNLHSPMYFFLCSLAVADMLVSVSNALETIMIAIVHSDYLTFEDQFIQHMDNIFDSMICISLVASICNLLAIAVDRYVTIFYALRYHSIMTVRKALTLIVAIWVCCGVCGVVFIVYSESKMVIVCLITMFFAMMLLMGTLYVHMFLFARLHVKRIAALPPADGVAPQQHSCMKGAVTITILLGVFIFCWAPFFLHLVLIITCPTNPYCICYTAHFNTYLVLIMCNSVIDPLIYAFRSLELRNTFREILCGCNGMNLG

**Q.** “desacetyl-αMSH (from UniProt P01189 138-150) (peptide)” was tested. Which Ec50, intracellular cAMP [1] did it give?
**A.** 8 nM

**Q.** How did the Ec50, intracellular cAMP [1] turn out when “γ2-MSH (from UniProt P01189 77-88) (peptide)” was run?
**A.** 3 nM

**Q.** With “βMSH (from UniProt P01189 217-234) (peptide)” as the molecule, how does the EC50, adenylate cyclase / cAMP-dependent β-galactosidase [2] read?
**A.** 5 nM

**Q.** “SHU9119, Ac-Nle^4-cyclo(Asp^5, D-Nal(2)^7, Lys^10) αMSH-(4-10)-amide (from UniProt P01189 141-147) (peptide)” was tested. Which pA2 (method of Schild) [3] did it give?
**A.** 8.3

**Q.** Which EC50, intracellular cAMP [4] does the source give for “Nle^4, D-Phe^7-αMSH (from UniProt P01189 138-150) (peptide)” here?
**A.** 0.028 nM

**Q.** What about the Ec50, adenylate cyclase activity [5] of the same molecule?
**A.** 11 pM

B1: adrenocorticotropic hormone (peptide, UniProt P01189 138-176, looked up)
peptide: SYSMEHFRWGKPVGKKRRPVKVYPNGAEDESAEAFPLEF
**Q.** What does the source list for B1?
**A.** EC50, intracellular cAMP [4]: 8 nM; Ec50, intracellular cAMP [1]: 4 nM; Ec50, adenylate cyclase activity [5]: 680 pM

B2: γ3-MSH (peptide, UniProt P01189 77-102, looked up)
peptide: YVMGHFRWDRFGRRNSSSSGSSGAGQ
modifications: ends and bridges not checked
**Q.** How did the Ec50, intracellular cAMP [1] turn out when B2 was run?
**A.** 6 nM

B3: γ1-MSH (peptide, UniProt P01189 77-87, looked up)
peptide: YVMGHFRWDRF
modifications: ends and bridges not checked
**Q.** With B3 as the molecule, how does the Ec50, intracellular cAMP [1] read?
**A.** 3 nM

B4: α-melanocyte stimulating hormone (peptide, UniProt P01189 138-150, looked up)
peptide: SYSMEHFRWGKPV
modifications: ends and bridges not checked
notes: domain: αMSH; also called αMSH; α-MSH
**Q.** Which results are given for B4?
**A.** Ec50, intracellular cAMP [1]: 4 nM; Ki [6]: ~100 nM

B5: ACTH4-10 (peptide, UniProt P01189 141-147, looked up)
peptide: MEHFRWG
notes: domain: ACTH4-10
**Q.** With B5 as the molecule, how does the “Ec50, intracellular cAMP” value [1] read?
**A.** 100 nM

**Q.** And the “Ec50, adenylate cyclase activity” value [5]?
**A.** > 100000 pM

**Q.** Does B6 bind (murine agouti peptide)?
**A.** binds

B7: γ-melanocyte stimulating hormone (peptide, UniProt P01189 77-88, looked up)
peptide: YVMGHFRWDRFG
notes: domain: γMSH; Printed without an index; also called γMSH; γ-MSH
**Q.** Which Ki [6] does the source give for B7 here?
**A.** ~50 nM
